Biological target: cynomolgus GITR (cyGITR), soluble analyte (cynomolgus)
Assay: SPR (Biacore T200), 37 C; antibody captured on anti-human Fc chip, GITR as analyte; 1:1 Langmuir fit

Kd: > 100 nM | koff: 0.078 s⁻¹ | t1/2: 9 s
B1: h3G7 H1 (antibody, V domains shown)
VH: EVQLVESGGGLVQPGGSLRLSCAASGFTFSDYTMNWVRQAPGKGLEWVALINPYNGGIRYNQKFKGRFTISRDNAKNSLYLQMNSLRAEDTAVYYCARIGGYYDSMDYWGQGTLVTVSS
VL: DIQMTQSPSSLSASVGDRVTITCRASESVDNFGINFLNWYQQKPGKAPKLLIYAASNQGSGVPSRFSGSGSGTDFTLTISSLQPEDFATYYCQQSKELPWTFGGGTKVEIK
